Laboratory results from paper PMC4017264 (Molecular Cell, 2014).

Tested on: endogenous OTULIN
Test: coimmunoprecipitation of endogenous OTULIN with tagged HOIP/HOIL-1
Assay type: cell-based
Conditions: tagged HOIP/HOIL-1 constructs, HEK293T or U2OS/NOD2 cells, western blot
Procedure: Transfected HEK293T or U2OS and NOD2 cells were lysed in the presence of protease and phosphatase inhibitors. Clarified lysates were incubated overnight with anti-V5 and anti-HA-agarose resin. […]
siOTULIN: […], siMM […]
Immunoprecipitation of HOIP-V5 and HA-OTULIN
HEK293T or U2OS/NOD2 cells were transfected as indicated. The cells were lysed in IP buffer buffer (25 mM HEPES pH 7.4, 150 mM KCl, 2 mM MgCl2, 1 mM EGTA, 0.5% (v/v) Triton X-100) supplemented with 5 mM NEM (Sigma-Aldrich), cOmplete protease inhibitor cocktail (Roche) and PhosSTOP
(Roche). After 30 minutes on ice, the lysates were cleared by centrifugation and incubated overnight at 4 °C with anti-V5-agarose resin or anti-HA-agarose resin. The beads were washed four times in ice-cold IP buffer and the precipitated material was eluted with 0.2 M glycine, pH 2.5. […]

Molecule | coimmunoprecipitation of endogenous OTULIN (in words) | coimmunoprecipitation of endogenous OTULIN (in words) (listed as wild-type HOIP)
HOIP: epitope-tagged HOIP, LUBAC E3 ligase component (protein, UniProt Q96EP0 1-1072, looked up, epitope tag) E3 ubiquitin-protein ligase …: MPGEEEERAFLVAREELASALRRDSGQAFSLEQLRPLLASSLPLAARYLQLDAARLVRCNAHGEPRNYLNTLSTALNILEKYGRNLLSPQRPRYWRGVKFNNPVFRSTVDAVQGGRDVLRLYGYTEEQPDGLSFPEGQEEPDEHQVATVTLEVLLLRTELSLLLQNTHPRQQALEQLLEDKVEDDMLQLSEFDPLLREIAPGPLTTPSVPGSTPGPCFLCGSAPGTLHCPSCKQALCPACDHLFHGHPSRAHHLRQTLPGVLQGTHLSPSLPASAQPRPQSTSLLALGDSSLSSPNPASAHLPWHCAACAMLNEPWAVLCVACDRPRGCKGLGLGTEGPQGTGGLEPDLARGRWACQSCTFENEAAAVLCSICERPRLAQPPSLVVDSRDAGICLQPLQQGDALLASAQSQVWYCIHCTFCNSSPGWVCVMCNRTSSPIPAQHAPRPYASSLEKGPPKPGPPRRLSAPLPSSCGDPEKQRQDKMREEGLQLVSMIREGEAAGACPEEIFSALQYSGTEVPLQWLRSELPYVLEMVAELAGQQDPGLGAFSCQEARRAWLDRHGNLDEAVEECVRTRRRKVQELQSLGFGPEEGSLQALFQHGGDVSRALTELQRQRLEPFRQRLWDSGPEPTPSWDGPDKQSLVRRLLAVYALPSWGRAELALSLLQETPRNYELGDVVEAVRHSQDRAFLRRLLAQECAVCGWALPHNRMQALTSCECTICPDCFRQHFTIALKEKHITDMVCPACGRPDLTDDTQLLSYFSTLDIQLRESLEPDAYALFHKKLTEGVLMRDPKFLWCAQCSFGFIYEREQLEATCPQCHQTFCVRCKRQWEEQHRGRSCEDFQNWKRMNDPEYQAQGLAMYLQENGIDCPKCKFSYALARGGCMHFHCTQCRHQFCSGCYNAFYAKNKCPEPNCRVKKSLHGHHPRDCLFYLRDWTALRLQKLLQDNNVMFNTEPPAGARAVPGGGCRVIEQKEVPNGLRDEACGKETPAGYAGLCQAHYKEYLVSLINAHSLDPATLYEVEELETATERYLHVRPQPLAGEDPPAYQARLLQKLTEEVPLGQSIPRRRK | copurified endogenous OTULIN | coprecipitated OTULIN
N-terminal 185 amino acids (aa) spanning the PUB domain of HOIP: HOIP truncation (protein, UniProt Q96EP0 1-185, looked up, fragment) MPGEEEERAFLVAREELASALRRDSGQAFSLEQLRPLLASSLPLAARYLQLDAARLVRCNAHGEPRNYLNTLSTALNILEKYGRNLLSPQRPRYWRGVKFNNPVFRSTVDAVQGGRDVLRLYGYTEEQPDGLSFPEGQEEPDEHQVATVTLEVLLLRTELSLLLQNTHPRQQALEQLLEDKVEDD | sufficient to coimmunoprecipitate endogenous OTULIN | 
aa 1–436: HOIP construct aa 1–436, also including B box and NZF domains (protein, UniProt Q96EP0 1-436, looked up, fragment) MPGEEEERAFLVAREELASALRRDSGQAFSLEQLRPLLASSLPLAARYLQLDAARLVRCNAHGEPRNYLNTLSTALNILEKYGRNLLSPQRPRYWRGVKFNNPVFRSTVDAVQGGRDVLRLYGYTEEQPDGLSFPEGQEEPDEHQVATVTLEVLLLRTELSLLLQNTHPRQQALEQLLEDKVEDDMLQLSEFDPLLREIAPGPLTTPSVPGSTPGPCFLCGSAPGTLHCPSCKQALCPACDHLFHGHPSRAHHLRQTLPGVLQGTHLSPSLPASAQPRPQSTSLLALGDSSLSSPNPASAHLPWHCAACAMLNEPWAVLCVACDRPRGCKGLGLGTEGPQGTGGLEPDLARGRWACQSCTFENEAAAVLCSICERPRLAQPPSLVVDSRDAGICLQPLQQGDALLASAQSQVWYCIHCTFCNSSPGWVCVMCNRTS | OTULIN interaction was increased | 
HOIL-1: epitope-tagged HOIL-1, LUBAC component (protein) MDEKTKKAEEMALSLTRAVAGGDEQVAMKCAIWLAEQRVPLSVQLKPEVSPTQDIRLWVSVEDAQMHTVTIWLTVRPDMTVASLKDMVFLDYGFPPVLQQWVIGQRLARDQETLHSHGVRQNGDSAYLYLLSARNTSLNPQELQRERQLRMLEDLGFKDLTLQPRGPLEPGPPKPGVPQEPGRGQPDAVPEPPPVGWQCPGCTFINKPTRPGCEMCCRARPEAYQVPASYQPDEEERARLAGEEEALRQYQQRKQQQQEGNYLQHVQLDQRSLVLNTEPAECPVCYSVLAPGEAVVLRECLHTFCRECLQGTIRNSQEAEVSCPFIDNTYSCSGKLLEREIKALLTPEDYQRFLDLGISIAENRSAFSYHCKTPDCKGWCFFEDDVNEFTCPVCFHVNCLLCKAIHEQMNCKEYQEDLALRAQNDVAARQTTEMLKVMLQQGEAMRCPQCQIVVQKKDGCDWIRCTVCHTEICWVTKGPRWGPGGPGDTSGGCRCRVNGIPCHPSCQNCH | OTULIN interacts with HOIP but not HOIL-1 | 
Y82A: V5-tagged HOIP with point mutation Y82A in the PUB binding site (protein, left off: V5, end not stated, kept) MPGEEEERAFLVAREELASALRRDSGQAFSLEQLRPLLASSLPLAARYLQLDAARLVRCNAHGEPRNYLNTLSTALNILEKAGRNLLSPQRPRYWRGVKFNNPVFRSTVDAVQGGRDVLRLYGYTEEQPDGLSFPEGQEEPDEHQVATVTLEVLLLRTELSLLLQNTHPRQQALEQLLEDKVEDDMLQLSEFDPLLREIAPGPLTTPSVPGSTPGPCFLCGSAPGTLHCPSCKQALCPACDHLFHGHPSRAHHLRQTLPGVLQGTHLSPSLPASAQPRPQSTSLLALGDSSLSSPNPASAHLPWHCAACAMLNEPWAVLCVACDRPRGCKGLGLGTEGPQGTGGLEPDLARGRWACQSCTFENEAAAVLCSICERPRLAQPPSLVVDSRDAGICLQPLQQGDALLASAQSQVWYCIHCTFCNSSPGWVCVMCNRTSSPIPAQHAPRPYASSLEKGPPKPGPPRRLSAPLPSSCGDPEKQRQDKMREEGLQLVSMIREGEAAGACPEEIFSALQYSGTEVPLQWLRSELPYVLEMVAELAGQQDPGLGAFSCQEARRAWLDRHGNLDEAVEECVRTRRRKVQELQSLGFGPEEGSLQALFQHGGDVSRALTELQRQRLEPFRQRLWDSGPEPTPSWDGPDKQSLVRRLLAVYALPSWGRAELALSLLQETPRNYELGDVVEAVRHSQDRAFLRRLLAQECAVCGWALPHNRMQALTSCECTICPDCFRQHFTIALKEKHITDMVCPACGRPDLTDDTQLLSYFSTLDIQLRESLEPDAYALFHKKLTEGVLMRDPKFLWCAQCSFGFIYEREQLEATCPQCHQTFCVRCKRQWEEQHRGRSCEDFQNWKRMNDPEYQAQGLAMYLQENGIDCPKCKFSYALARGGCMHFHCTQCRHQFCSGCYNAFYAKNKCPEPNCRVKKSLHGHHPRDCLFYLRDWTALRLQKLLQDNNVMFNTEPPAGARAVPGGGCRVIEQKEVPNGLRDEACGKETPAGYAGLCQAHYKEYLVSLINAHSLDPATLYEVEELETATERYLHVRPQPLAGEDPPAYQARLLQKLTEEVPLGQSIPRRRK | abrogated OTULIN binding | 
N102D: V5-tagged HOIP with point mutation N102D in the PUB binding site (protein, UniProt Q96EP0 1-1072, looked up, variant N102D, V5 tag) E3 ubiquitin-protein ligase …: MPGEEEERAFLVAREELASALRRDSGQAFSLEQLRPLLASSLPLAARYLQLDAARLVRCNAHGEPRNYLNTLSTALNILEKYGRNLLSPQRPRYWRGVKFNDPVFRSTVDAVQGGRDVLRLYGYTEEQPDGLSFPEGQEEPDEHQVATVTLEVLLLRTELSLLLQNTHPRQQALEQLLEDKVEDDMLQLSEFDPLLREIAPGPLTTPSVPGSTPGPCFLCGSAPGTLHCPSCKQALCPACDHLFHGHPSRAHHLRQTLPGVLQGTHLSPSLPASAQPRPQSTSLLALGDSSLSSPNPASAHLPWHCAACAMLNEPWAVLCVACDRPRGCKGLGLGTEGPQGTGGLEPDLARGRWACQSCTFENEAAAVLCSICERPRLAQPPSLVVDSRDAGICLQPLQQGDALLASAQSQVWYCIHCTFCNSSPGWVCVMCNRTSSPIPAQHAPRPYASSLEKGPPKPGPPRRLSAPLPSSCGDPEKQRQDKMREEGLQLVSMIREGEAAGACPEEIFSALQYSGTEVPLQWLRSELPYVLEMVAELAGQQDPGLGAFSCQEARRAWLDRHGNLDEAVEECVRTRRRKVQELQSLGFGPEEGSLQALFQHGGDVSRALTELQRQRLEPFRQRLWDSGPEPTPSWDGPDKQSLVRRLLAVYALPSWGRAELALSLLQETPRNYELGDVVEAVRHSQDRAFLRRLLAQECAVCGWALPHNRMQALTSCECTICPDCFRQHFTIALKEKHITDMVCPACGRPDLTDDTQLLSYFSTLDIQLRESLEPDAYALFHKKLTEGVLMRDPKFLWCAQCSFGFIYEREQLEATCPQCHQTFCVRCKRQWEEQHRGRSCEDFQNWKRMNDPEYQAQGLAMYLQENGIDCPKCKFSYALARGGCMHFHCTQCRHQFCSGCYNAFYAKNKCPEPNCRVKKSLHGHHPRDCLFYLRDWTALRLQKLLQDNNVMFNTEPPAGARAVPGGGCRVIEQKEVPNGLRDEACGKETPAGYAGLCQAHYKEYLVSLINAHSLDPATLYEVEELETATERYLHVRPQPLAGEDPPAYQARLLQKLTEEVPLGQSIPRRRK | abrogated OTULIN binding | 
